Here are results for 1 molecule from paper PMC2847222.

For this experiment, the target named is RepD replication initiation protein of Staphylococcus aureus plasmid pC221 (wild type) (Staphylococcus aureus (plasmid pC221)) (UniProt P03065). The experiment is described as follows: AUC.
UniProt P03065, sequence (P03065 whole entry): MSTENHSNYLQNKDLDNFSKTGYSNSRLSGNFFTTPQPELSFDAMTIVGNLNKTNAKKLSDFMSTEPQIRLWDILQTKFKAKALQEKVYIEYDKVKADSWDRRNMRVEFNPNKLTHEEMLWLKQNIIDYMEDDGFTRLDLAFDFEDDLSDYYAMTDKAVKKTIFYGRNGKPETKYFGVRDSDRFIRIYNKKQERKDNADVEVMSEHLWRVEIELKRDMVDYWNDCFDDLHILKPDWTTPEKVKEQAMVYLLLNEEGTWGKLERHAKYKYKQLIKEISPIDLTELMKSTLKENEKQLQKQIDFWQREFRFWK

B1: Bacillus stearothermophilus PcrA helicase (enzyme)
chain: MNFLSEQLLAHLNKEQQEAVRTTEGPLLIMAGAGSGKTRVLTHRIAYLMAEKHVAPWNILAITFTNKAAREMRERVQSLLGGAAEDVWISTFHSMCVRILRRDIDRIGINRNFSILDPTDQLSVMKTILKEKNIDPKKFEPRTILGTISAAKNELLPPEQFAKRASTYYEKVVSDVYQEYQQRLLRNHSLDFDDLIMTTIQLFDRVPDVLHYYQYKFQYIHIDEYQDTNRAQYTLVKKLAERFQNICAVGDADQSIYRWRGADIQNILSFERDYPNAKVILLEQNYRSTKRILQAANEVIEHNVNRKPKRIWTENPEGKPILYYEAMNEADEAQFVAGRIREAVERGERRYRDFAVLYRTNAQSRVMEEMLLKANIPYQIVGGLKFYDRKEIKDILAYLRVIANPDDDLSLLRIINVPKRGIGASTIDKLVRYAADHELSLFEALGELEMIGLGAKAAGALAAFRSQLEQWTQLQEYVSVTELVEEVLDKSGYREMLKAERTIEAQSRLENLDEFLSVTKHFENVSDDKSLIAFLTDLALISDLDELDGTEQAAEGDAVMLMTLHAAKGLEFPVVFLIGMEEGIFPHNRSLEDDDEMEEERRLAYVGITRAEEELVLTSAQMRTLFGNIQMDPPSRFLNEIPAHLLETASRRQAGASRPAVSRPQASGAVGSWKVGDRANHRKWGIGTVVSVRGGGDDQELDIAFPSPIGIKRLLAKFAPIEKV
As usually defined, the Kd is the concentration at which binding is half-saturated. Read a high Kd as a looser complex. Take B1: the Kd is 98.5 nM.
